{"source": "paper PMC5467530", "substrate": "O=c1[nH]cnc2c([C@@H]3O[C@H](COP(=O)(O)O)[C@@H](O)[C@H]3O)n[nH]c12", "experiment": "pyruvate kinase / lactate dehydrogenase coupled assay, NADH oxidation by UV", "format": "biochemical, Streptomyces kaniharaensis", "settings": "2.5 mM L-aspartate, 0.125 mM GTP"}
{"protein": "ForA (Streptomyces kaniharaensis) (protein) MLKAIVGLNWGDEGKGRMVDNLSAEADYTVRYHGGSNAGHTIHTDQGKFKLHSLPSSVLHPTVTGVLGPGMTVDVEGFLAEFEALREHGVTADRLLVADAASVCFPFHRDLDGAEEERLSDGRYGSTRRGISPAYGDRVMKKTLLVRELFDRENLPARLAAVLDWANERIVRIYGGAPLSLDEVTRWAADVAARLEPHVVDATALLGKALDDGATVIAEGQLGALKDLYYGIYPFTTSSTCLAGHAPVGIGVPWARVDRTIGVTKAFSSCVGAGPFVTEFDEERADRLRRQWGEYGSTTNRPRRLGAFDAVATRYGVRVQGADEVAITNLDQLSGTGELDLCVAYERAGRTVREFSPRPAELAASTPVHETLSGWDEDISGVRTYEQLPAGAREYVEAIQELLGVPVRHVSVGSHRDALIEIK", "values": [{"measurement": "Km", "result": "74 ± 25", "unit": "µM"}, {"measurement": "kcat", "result": "0.3 ± 0.033", "unit": "s⁻¹"}]}
